{"source": "patent US20200247886A1", "about": "(ZLIP, published 2020)", "key": {"[1]": {"molecular_target": "T1, human CD47 expressed on cells (CD47 expressing CHO cells, Jurkat, HL60, DLD1, Raji) (human, UniProt Q08722 19-292)", "T1 construct": "also called CHO-CD47; IAP", "assay": "flow cytometry on human red blood cells, donor 2, MFI; EC50 (nM) table beside the legend"}, "[2]": {"molecular_target": "T2, human CD47-Fc protein (Novoprotein, Cat#CG18) (human, UniProt Q08722 19-139)", "T2 construct": "Bought protein; also called CD47-hFc; hCD47-hFc fusion protein; not shown: human IgG Fc of the bought fusion protein", "assay": "IC50 (nM) as grade, blocking of soluble CD47 binding to SIRPα-expressing CHO cells; legend ++: >1 nM and <10 nM"}, "[3]": {"molecular_target": "T3, CD47 protein (construct not stated; SPR antigen, CD47 coated ELISA plates) (Homo sapiens (Human), UniProt Q08722 19-139, limits assumed)", "T3 construct": "also called the antigen", "assay": "SPR (Biacore T100), affinity (nM) as grade; legend +: >10 nM and <40 nM"}, "[4]": {"molecular_target": "T1, human CD47 expressed on cells (CD47 …)", "assay": "EC50 (nM) as grade, binding on CHO-CD47 cells; legend ++++: <0.05 nM"}, "[5]": {"molecular_target": "T2, human CD47-Fc protein (Novoprotein, …)", "assay": "IC50 (nM) as grade, neutralizing ELISA, CD47-hFc on SIRPα coated plate; legend ++: >15 nM and <20 nM"}, "[6]": {"molecular_target": "T1, human CD47 expressed on cells (CD47 …)", "assay": "EC50 (nM) as grade, binding on Jurkat cells; legend ++++: <0.05 nM"}, "[7]": {"molecular_target": "T4, CHO/mCD47-GFP (mouse, UniProt Q61735)", "T4 construct": "on the cell surface; also called mouse CD47 expressed on CHO cells; CHO cell expressing mouse CD47", "T4 sequence (receptor, looked up)": "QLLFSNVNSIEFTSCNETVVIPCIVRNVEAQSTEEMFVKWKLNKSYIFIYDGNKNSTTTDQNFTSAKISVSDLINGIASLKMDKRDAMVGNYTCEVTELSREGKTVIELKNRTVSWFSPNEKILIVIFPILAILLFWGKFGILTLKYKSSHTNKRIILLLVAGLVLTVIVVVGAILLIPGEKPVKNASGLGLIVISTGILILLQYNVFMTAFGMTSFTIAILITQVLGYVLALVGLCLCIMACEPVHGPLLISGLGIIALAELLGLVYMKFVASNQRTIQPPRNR", "assay": "flow cytometry on CHO cells expressing mouse CD47-GFP, binding percentage"}, "[8]": {"molecular_target": "T1, human CD47 expressed on cells (CD47 …)", "assay": "flow cytometry on DLD1 cells, IgG, frequency"}, "[9]": {"molecular_target": "T1, human CD47 expressed on cells (CD47 …)", "assay": "EC50 (nM) as grade, binding on Jurkat cells; legend ++: >1 nM and <10 nM"}, "[10]": {"molecular_target": "T1, human CD47 expressed on cells (CD47 …)", "assay": "flow cytometry on CD47 expressing CHO cells, MFI (FL-4)"}, "[11]": {"molecular_target": "T5, biotin labelled polyhistidine tagged CD47 protein (Novoprotein, Cat#321) (human, UniProt Q08722 19-139, biotin labelled (site not stated))", "T5 construct": "Bought protein; also called biotinylated CD47; biotinylated human CD47 protein; not shown: polyhistidine tag", "assay": "flow cytometry blocking assay: antibody mixed with biotinylated human CD47 protein; blocked ligand SIRPα on cells; binding percentage"}, "[12]": {"molecular_target": "T3, CD47 protein (construct not stated; SPR …)", "assay": "SPR (Biacore T100), affinity (nM) as grade; legend -: >40 nM"}, "[13]": {"molecular_target": "T1, human CD47 expressed on cells (CD47 …)", "assay": "EC50 (nM) as grade, binding on CHO-CD47 cells; legend +++: >0.05 nM and <1 nM"}, "[14]": {"molecular_target": "T1, human CD47 expressed on cells (CD47 …)", "assay": "EC50 (nM) as grade, binding on Jurkat cells; legend +++: >0.05 nM and <1 nM"}, "[15]": {"molecular_target": "T2, human CD47-Fc protein (Novoprotein, …)", "assay": "IC50 (nM) as grade, neutralizing ELISA, CD47-hFc on SIRPα coated plate; legend +++: >8 nM and <15 nM"}, "[16]": {"molecular_target": "T2, human CD47-Fc protein (Novoprotein, …)", "assay": "IC50 (nM) as grade, blocking of soluble CD47 binding to SIRPα-expressing CHO cells; legend +++: >0.05 nM and <1 nM"}, "[17]": {"molecular_target": "T1, human CD47 expressed on cells (CD47 …)", "assay": "IC50 as grade, SIRPα blocking on Raji cells; legend ++: >1 nM and <20 nM"}, "[18]": {"molecular_target": "T1, human CD47 expressed on cells (CD47 …)", "assay": "IC50 as grade, SIRPα blocking on Raji cells; legend +: >20 nM"}}, "data": [{"binder": "ABU3 (antibody, V domains shown, Murine hybridoma monoclonal antibody) VH: EVQLQQSGAELVKPGASVKLSCTASGFTIKDTYMHWVKQRPEQGLEWIGRIDPAKDNTKYDPKFQGKATITLDTSSNIAYLQLSSLTSEDTAVYFCARGHYGSSYVVYWGQGTLVTVSA VL: NILMTQSPKSMSMSVGERVTLSCKASENVGTYVSWYQQKPDQSPKLLIYGASNRYTGVPDRFTGSGSATDFTLTISSVQAEDLADYHCGQSYSYPLTFGAGTKLELK", "values": [{"measurement": "EC50", "setting": "[1]", "result": 1.47, "unit": "nM"}, {"measurement": "IC50", "setting": "[2]", "result": "1 to 10", "unit": "nM"}, {"measurement": "Affinity by SPR", "setting": "[3]", "result": "10 to 40", "unit": "nM"}, {"measurement": "EC50", "setting": "[4]", "result": "< 0.05", "unit": "nM"}, {"measurement": "IC50", "setting": "[5]", "result": "15 to 20", "unit": "nM"}, {"measurement": "EC50", "setting": "[6]", "result": "< 0.05", "unit": "nM"}, {"measurement": "binding result", "setting": "[7]", "result": "no binding (tested: about 0.4 ug/ml)"}]}, {"binder": "Positive 2 (benchmark analogue antibody) (antibody, V domains shown, also called Pos) VH: QVQLQQPGAELVKPGASVMMSCKASGYTFTNYNMHWVKQTPGQGLEWIGTIYPGNDDTSYNQKFKDKATLTADKSSSAAYMQLSSLTSEDSAVYYCARGGYRAMDYWGQTSVTVSS VL: DVLMTQTPLSLPVSLGDQASISCRSSQSIVYSNGNTYLGWYLQKPGQSPKLLIYKVSNRFSGVPDRFSGSGSGTDFTLKISRVEAEDLGVYHCFQGSHVPYTFGGGTKVEIK", "values": [{"measurement": "EC50 (read off the curve)", "setting": "[8]", "result": "~2", "unit": "nM"}, {"measurement": "IC50", "setting": "[2]", "result": "1 to 10", "unit": "nM"}, {"measurement": "Affinity by SPR", "setting": "[3]", "result": "10 to 40", "unit": "nM"}, {"measurement": "EC50", "setting": "[9]", "result": "1 to 10", "unit": "nM"}, {"measurement": "EC50 (read off the curve)", "setting": "[10]", "result": "~2", "unit": "nM"}, {"measurement": "EC50", "setting": "[4]", "result": "< 0.05", "unit": "nM"}, {"measurement": "IC50 (read off the curve)", "setting": "[11]", "result": "~8", "unit": "nM"}, {"measurement": "binding result", "setting": "[7]", "result": "no binding (tested: about 0.4 ug/ml)"}]}, {"binder": "ABU1 (antibody, V domains shown, Murine hybridoma monoclonal antibody) VH: EVKLVESGGGLVQPGGSRKLSCAASGFTFSDYGMAWVRQAPGKGPECVAFISNLAKRIYYVDTVTGRFTISRENAKNTLYLEMSSLRSEDTAMYYCTRAYRYALDYWGQGTTLTVSS VL: QIVLTQSPAIMSASPGEKVTMTCSASSSVSYMNWYQQKSGTSPKRWIYDTSKLASGVPARFSGSGSGTSYSLTISSMEAEDAATYYCQQWNSNPPTFGTGTKLELK", "values": [{"measurement": "EC50", "setting": "[1]", "result": 0.12, "unit": "nM"}, {"measurement": "IC50", "setting": "[2]", "result": "1 to 10", "unit": "nM"}, {"measurement": "Kd", "setting": "[12]", "result": "> 40", "unit": "nM"}, {"measurement": "EC50", "setting": "[13]", "result": "0.05 to 1", "unit": "nM"}, {"measurement": "EC50", "setting": "[14]", "result": "0.05 to 1", "unit": "nM"}, {"measurement": "binding result", "setting": "[7]", "result": "no binding (tested: about 0.4 ug/ml)"}]}, {"binder": "ABU4 (antibody, V domains shown, Murine hybridoma monoclonal antibody) VH: QVQLQQSGPQLVRPGASVKISCKTSGYSFTNYWMQWVKQRPGQGLEWIGMIDPSDSESRLNQKFKDKATLTVDKSSSTAYMQLSSPTFEDSAVYYCARRGSPMITSFAYWGQGTLVTVSA VL: DVQITQSPSFLAASPGETITINCRASKNIGKYLAWFQEKPGKTNKLLIYSGSTLQSGIPSRFSGSGSGTDFTLTISSLEPEDFAIYYCQQHNEYPYTFGGGTKLEIK", "values": [{"measurement": "EC50", "setting": "[1]", "result": 0.34, "unit": "nM"}, {"measurement": "IC50", "setting": "[15]", "result": "8 to 15", "unit": "nM"}, {"measurement": "IC50", "setting": "[16]", "result": "0.05 to 1", "unit": "nM"}, {"measurement": "Affinity by SPR", "setting": "[3]", "result": "10 to 40", "unit": "nM"}, {"measurement": "EC50", "setting": "[4]", "result": "< 0.05", "unit": "nM"}, {"measurement": "EC50", "setting": "[14]", "result": "0.05 to 1", "unit": "nM"}, {"measurement": "binding result", "setting": "[7]", "result": "no binding (tested: about 0.4 ug/ml)"}]}, {"binder": "H-ABU 5 (antibody, V domains shown) VH: QVQLVQSGAEVKKPGASVKVSCKASGYTFTDNYINWVRQAPGQRLEWMGWIYLGSGNTKYNEKFKGRVTITRDTSASTAYMELSSLRSEDTAVYYCARREERGFAVWGQGTLVTVSS VL: not shown", "values": [{"measurement": "IC50", "setting": "[17]", "result": "1 to 20", "unit": "nM"}]}, {"binder": "H-ABU 3 (antibody, V domains shown) VH: QVQLVQSGAEVKKPGASVKVSCKASGYTFTDSYINWVRQAPGQRLEWMGWIYTGSGNTKYNEKFKGRVTITRDTSASTAYMELSSLRSEDTAVYYCARREERGFAYWGQGTLVTVSS VL: not shown", "values": [{"measurement": "IC50", "setting": "[18]", "result": "> 20", "unit": "nM"}]}]}
